Results taken from publication PMC4406585, “Generating Recombinant Antibodies against Putative Biomarkers of Retinal Injury” (PLoS ONE, 2015).
*: point of attachment. Biotin = O=C1N[C@H]2[C@H](CS[C@H]2CCCCC(=O)*)N1

T1: GBB5 peptide (Guanine Nucleotide-Binding Protein Beta 5) (Oryctolagus cuniculus peptide, synthetic, SMILES …)
T1 construct: four amino acid linker, printed in words: Glycine-Serine-Glycine-Serine; also called wild-type peptide; Ctrl; source: synthetic peptide
T1 chain: Biotin-GSGSKLHDVELHQVAERV-NH2

B1: anti-GBB5-H9 scFv (scFv, V domains shown)
VH: EVQLVQSGGGLVQPGGSLRLSCAASGFTVSSNYMSWVRQAPGKGLEWVSSISSSSSYIYYADSVKGRFTISRDNAKNSLYLQMNSLRAEDTAVYYCARSYPFDYWGQGTLVTVSS
VL: NFMLTQPHSVSESPGKAVTISCTGSSGDVARNYVQWYQQRPGSAPIIVIYEDTQRPSGVPDRFSGSIDSSSNSASLTISGLTTEDEADYYCQSYDGHNVIFGGGTKLTVL
notes: VL of clone H9, from a phage library of human B-cell cDNA; 14 amino acid linker of the library vector between VL and VH; VH of clone H9, from a phage library of human B-cell cDNA; Order VL-linker-VH; also called anti-GBB5-scFv H9; source: E. coli TG-1 (pKP300ΔIIIΔAP, OmpA signal to the periplasm, low phosphate media), purified (IMAC); not shown: FLAG, N-terminal, kept
B2: anti-GBB5-H9 scFv-Fc (Fc fusion, human)
VH: B1 VH
VL: B1 VL
notes: VL as in m1 (clone H9); 14 amino acid linker of the library vector between VL and VH; VH as in m1 (clone H9); H9 scFv coding region subcloned upstream of the Fc through NcoI and NotI; order after the scFv: Fc, (His)6, tri-FLAG; Homodimer through disulfide bonds of the Fc; also called Fc format of the H9 clone; bivalent Fc format; source: HEK-293 Freestyle cells, transiently transfected …

Experiments:
[1] = molecular target: T2, Guanine Nucleotide-Binding Protein Beta 5 (GBB5), chicken, endogenous (Gallus gallus, UniProt A0A8V0ZF95); assay: far-Western, overlay or dot blot; western blot: retinal lysates resolved by SDS-PAGE, on PVDF; probed with 1 μg/mL scFv in PBS for 2 h; anti-Flag-HRP M2, ECL; details: one partner purified
T2 construct: expected size 38.8 kDa printed; also called chicken homolog; source: endogenous, chicken retina or whole eye homogenate

[2] = molecular target: T3, Guanine Nucleotide-Binding Protein Beta 5 (GBB5), mouse, endogenous (Mus musculus, UniProt P62881, strain); assay: as above; details: one partner purified
T3 construct: also called mouse GBB5; source: endogenous, mouse retinal homogenate

[3] = molecular target: T4, Guanine Nucleotide-Binding Protein Beta 5 (GBB5), rabbit, endogenous (Oryctolagus cuniculus, UniProt Q6PNB6); assay: as above; details: one partner purified
T4 construct: expected size 38.7 kDa printed; also called rabbit GBB5; source: endogenous, rabbit retinal homogenate

GBB5 peptide (Guanine …) [4] = molecular target: T1, GBB5 peptide (Guanine …); assay: photonic crystal biosensor (SRU Biosystems BIND); biotinylated peptide, 50 ng/well, on streptavidin-coated 96-well biosensor plate, blocked with 5% BSA; scFv in decreasing concentration in 7 wells in elution buffer; overnight end-point change in peak wavelength; dose response curve, EC50 used to estimate Kd; details: both partners purified
GBB5 peptide (Guanine …) [5] = molecular target: T1, GBB5 peptide (Guanine …); assay: ELISA; peptides at 25 nM on NeutrAvidin-coated plate; scFv at 30 nM, scFv-Fc at 10 nM in PBST; anti-FLAG-HRP, ABTS, 405 nm; details: both partners purified

T3 sequence (P62881 whole entry, looked up, change not shown): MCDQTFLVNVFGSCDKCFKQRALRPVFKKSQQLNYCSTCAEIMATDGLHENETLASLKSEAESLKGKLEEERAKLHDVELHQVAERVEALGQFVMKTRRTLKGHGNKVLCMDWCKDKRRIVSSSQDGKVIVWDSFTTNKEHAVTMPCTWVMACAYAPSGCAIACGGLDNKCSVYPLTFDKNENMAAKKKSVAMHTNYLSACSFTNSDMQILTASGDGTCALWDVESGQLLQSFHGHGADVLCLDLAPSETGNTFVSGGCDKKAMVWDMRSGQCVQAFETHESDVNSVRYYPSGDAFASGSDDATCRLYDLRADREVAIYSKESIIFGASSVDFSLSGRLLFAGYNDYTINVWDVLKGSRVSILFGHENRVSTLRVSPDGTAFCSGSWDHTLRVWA
T4 sequence (Q6PNB6 whole entry): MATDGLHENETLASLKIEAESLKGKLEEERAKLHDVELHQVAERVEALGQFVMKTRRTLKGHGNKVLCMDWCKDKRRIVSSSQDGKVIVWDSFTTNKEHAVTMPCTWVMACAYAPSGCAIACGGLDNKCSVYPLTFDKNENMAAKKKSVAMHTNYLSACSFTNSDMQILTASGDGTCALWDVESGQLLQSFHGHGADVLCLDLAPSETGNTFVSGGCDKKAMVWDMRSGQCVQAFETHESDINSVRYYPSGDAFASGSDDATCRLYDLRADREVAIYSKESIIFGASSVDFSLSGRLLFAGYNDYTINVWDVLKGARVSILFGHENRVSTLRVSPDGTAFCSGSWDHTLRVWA

Binder | binding result [1] | binding result [2] | binding result [3] | EC50 (GBB5 peptide (Guanine …) [4]) | fold ELISA signal against the soluble scFv (GBB5 peptide (Guanine …) [5])
B1 | binds | binds | binds | ~300 nM | 
B2 |  |  |  |  | ~4.5 fold
